B1: anti-CGRP receptor variant 06, yeast-displayed Fab (Fab, V domains shown)
VH: QVQLVESGGGVVQPGRSLRLSCAASGFTFSSFGMHWVRQAPGKGLEWVAVISFDGSIKYSVDSVKGRFTISRDNSKNTLFLQMNSLRAEDTAVYYCARDRLNYYESSGYYHYKYYGMAVWGQGTTVTVSS
VL: QSVLTQPPSVSAAPGQKVTISCSGSYSNIGRKSVSWYQQLPGTAPKLLIYDNNKRPSGIPDRFSGSKSGTSATLGITGLQTGDEADYYCGTWDSRLSAVVFGGGTKLTVLG
notes: also called Variant Ab ID 06
B2: anti-CGRP receptor variant 01, yeast-displayed Fab (Fab, V domains shown)
VH: QVQLVESGGGVVQPGRSLRLSCAASGFTFSSFGMHWVRQAPGKGLEWVAVISFDGSIKYSVDSVKGRFTISRDNSKNTLFLQMNSLRAEDTAVYYCARDRLNYYESSGYYHYKYYGMAVWGQGTTVTVSS
VL: QSVLTQPPSVSAAPGQKVTISCSGSYSNIGRYSVSWYQQLPGTAPKLLIYDNNKRPSGIPDRFSGSKSGTSATLGITGLQTGDEADYYCGTWDSRLSAVVFGGGTKLTVLG
notes: also called Variant Ab ID 01
B3: anti-CGRP receptor variant 02, yeast-displayed Fab (Fab, V domains shown)
VH: QVQLVESGGGVVQPGRSLRLSCAASGFTFSSFGMHWVRQAPGKGLEWVAVISFDGSIKYSVDSVKGRFTISRDNSKNTLFLQMNSLRAEDTAVYYCARDRLNYYESSGYYHYKYYGMAVWGQGTTVTVSS
VL: QSVLTQPPSVSAAPGQKVTISCSGSRSNIGIKAVSWYQQLPGTAPKLLIYDNNKRPSGIPDRFSGSKSGTSATLGITGLQTGDEADYYCGTWDSRLSAVVFGGGTKLTVLG
notes: also called Variant Ab ID 02
B4: anti-CGRP receptor variant 04, yeast-displayed Fab (Fab, V domains shown)
VH: QVQLVESGGGVVQPGRSLRLSCAASGFTFSSFGMHWVRQAPGKGLEWVAVISFDGSIKYSVDSVKGRFTISRDNSKNTLFLQMNSLRAEDTAVYYCARDRLNYYRSFGYYGYHYYGMAVWGQGTTVTVSS
VL: QSVLTQPPSVSAAPGQKVTISCSGSSSNIGNNYVSWYQQLPGTAPKLLIYDNNKRPSGIPDRFSGSKSGTSATLGITGLQTGDEADYYCGTWDSRLSAVVFGGGTKLTVLG
notes: also called Variant Ab ID 04
B5: anti-CGRP receptor variant 05, yeast-displayed Fab (Fab, V domains shown)
VH: QVQLVESGGGVVQPGRSLRLSCAASGFTFSSFGMHWVRQAPGKGLEWVAVISFDGSIKYSVDSVKGRFTISRDNSKNTLFLQMNSLRAEDTAVYYCARDRLNYYESSGYYHYKYYGMAVWGQGTTVTVSS
VL: QSVLTQPPSVSAAPGQKVTISCSGSFSNIGRSTVSWYQQLPGTAPKLLIYDNRWRAGGIPDRFSGSKSGTSATLGITGLQTGDEADYYCGTWDYQWKAVVFGGGTKLTVLG
notes: also called Variant Ab ID 05
B6: anti-CGRP receptor variant 07, yeast-displayed Fab (Fab, V domains shown)
VH: QVQLVESGGGVVQPGRSLRLSCAASGFYFMTYGMHWVRQAPGKGLEWVAVISFDGSIKYSVDSVKGRFTISRDNSKNTLFLQMNSLRAEDTAVYYCARDRLNYYESSGYYHYKYYGMAVWGQGTTVTVSS
VL: QSVLTQPPSVSAAPGQKVTISCSGSSSNIGNNYVSWYQQLPGTAPKLLIYDNNKRPSGIPDRFSGSKSGTSATLGITGLQTGDEADYYCGTWDSRLSAVVFGGGTKLTVLG
notes: also called Variant Ab ID 07
B7: anti-CGRP receptor variant 08, yeast-displayed Fab (Fab, V domains shown)
VH: QVQLVESGGGVVQPGRSLRLSCAASGFTFSSFGMHWVRQAPGKGLEWVAVISFDGSIKYSVDSVKGRFTISRDNSKNTLFLQMNSLRAEDTAVYYCARDRLNYYESSGYYHYKYYGMAVWGQGTTVTVSS
VL: QSVLTQPPSVSAAPGQKVTISCSGSYSNIGWWPVSWYQQLPGTAPKLLIYDNNKRPSGIPDRFSGSKSGTSATLGITGLQTGDEADYYCGTWDSRLSAVVFGGGTKLTVLG
notes: also called Variant Ab ID 08
B8: anti-CGRP receptor variant 12, yeast-displayed Fab (Fab, V domains shown)
VH: QVQLVESGGGVVQPGRSLRLSCAASGFTFSSFGMHWVRQAPGKGLEWVAVISFDGSIKYSVDSVKGRFTISRDNSKNTLFLQMNSLRAEDTAVYYCARDRLNYYESSGYYHYKYYGMAVWGQGTTVTVSS
VL: QSVLTQPPSVSAAPGQKVTISCSGSRSNIGRYSVSWYQQLPGTAPKLLIYDNRYRAQGIPDRFSGSKSGTSATLGITGLQTGDEADYYCGTWDWATTSVVFGGGTKLTVLG
notes: also called Variant Ab ID 12
B9: 4E4.2 parental Fab, yeast-displayed (Fab, V domains shown)
VH: QVQLVESGGGVVQPGRSLRLSCAASGFTFSSFGMHWVRQAPGKGLEWVAVISFDGSIKYSVDSVKGRFTISRDNSKNTLFLQMNSLRAEDTAVYYCARDRLNYYESSGYYHYKYYGMAVWGQGTTVTVSS
VL: QSVLTQPPSVSAAPGQKVTISCSGSSSNIGNNYVSWYQQLPGTAPKLLIYDNNKRPSGIPDRFSGSKSGTSATLGITGLQTGDEADYYCGTWDSRLSAVVFGGGTKLTVLG
notes: also called parental 4E4.2 Fab

Assays:
[1] = biological target: T1, human CGRP receptor extracellular domain (ECD) (human, UniProt Q16602 23-138; O60894 27-117); assay: yeast-displayed Fab, FACS, 10 nM human CGRP receptor ECD
T1 construct: also called CGRP receptor ECD; human CGRP receptor ECD

[2] = biological target: T1, human CGRP receptor extracellular …; assay: yeast-displayed Fab, FACS, 1 nM human CGRP receptor ECD
[3] = biological target: T2, human CGRP receptor (human CRLR / human RAMP1 heterodimer) (human, UniProt Q16602 23-461; O60894 27-148); assay: yeast-displayed Fab, FACS, detergent-solubilized lysate of human CGRP receptor-expressing cells vs blank cells
T2 construct: Full-length receptor: endogenous on SK-N-MC (HTB-10) cells in the cAMP assay; also called hCGRP receptor on SK-N-MC (HTB-10) cells; Human CGRP Receptor/AMID detergent-solubilized cell lysate

[4] = biological target: T3, cynomolgus monkey CGRP receptor (cynomolgus monkey, UniProt A0A2K5VQ71 34-472); assay: yeast-displayed Fab, FACS, detergent-solubilized lysate of cynomolgus CGRP receptor/HEK cells vs blank cells
T3 construct: whole, on cells; Presented as detergent-solubilized lysate of HEK cells expressing the cynomolgus receptor; also called Cyno CGRP Receptor; Cynomolgus Monkey CGRP Receptor/HEK detergent-solubilized cell lysate

[5] = biological target: T4, human PAC1 receptor extracellular domain (ECD) (human, UniProt P41586 24-153); assay: yeast-displayed Fab, FACS, 10 nM PAC1 receptor ECD
T4 construct: also called PAC1 receptor ECD; PAC1 ECD
T4 sequence: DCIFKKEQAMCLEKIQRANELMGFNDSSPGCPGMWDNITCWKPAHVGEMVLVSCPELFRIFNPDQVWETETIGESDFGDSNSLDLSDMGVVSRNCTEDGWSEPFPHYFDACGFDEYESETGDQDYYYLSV

T1 sequence (Q16602 23-138 limits assumed, chain 1 of 2): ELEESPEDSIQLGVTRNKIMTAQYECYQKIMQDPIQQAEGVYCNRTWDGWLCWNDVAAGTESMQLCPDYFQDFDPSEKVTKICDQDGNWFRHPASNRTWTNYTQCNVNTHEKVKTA
T1 sequence (O60894 27-117 limits assumed, chain 2 of 2): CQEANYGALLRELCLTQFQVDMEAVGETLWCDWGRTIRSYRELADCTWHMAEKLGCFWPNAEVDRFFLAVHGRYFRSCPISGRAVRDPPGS
T2 sequence (Q16602 23-461 limits assumed, chain 1 of 2): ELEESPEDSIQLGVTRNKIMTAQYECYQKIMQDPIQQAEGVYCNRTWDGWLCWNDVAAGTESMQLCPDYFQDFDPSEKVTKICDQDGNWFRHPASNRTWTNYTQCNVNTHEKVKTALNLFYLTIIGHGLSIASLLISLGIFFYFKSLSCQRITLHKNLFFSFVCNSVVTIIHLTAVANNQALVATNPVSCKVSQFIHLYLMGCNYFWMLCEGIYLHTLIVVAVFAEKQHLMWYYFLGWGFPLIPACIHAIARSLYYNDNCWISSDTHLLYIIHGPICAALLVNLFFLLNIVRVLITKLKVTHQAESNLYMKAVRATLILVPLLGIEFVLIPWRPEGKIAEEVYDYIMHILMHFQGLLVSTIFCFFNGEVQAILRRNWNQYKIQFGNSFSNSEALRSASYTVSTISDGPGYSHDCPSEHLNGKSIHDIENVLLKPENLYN
T2 sequence (O60894 27-148 limits assumed, chain 2 of 2): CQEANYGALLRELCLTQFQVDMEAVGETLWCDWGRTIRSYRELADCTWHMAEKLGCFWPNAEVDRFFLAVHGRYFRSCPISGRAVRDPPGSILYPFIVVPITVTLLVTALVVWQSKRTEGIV
T3 sequence (A0A2K5VQ71 entry or part of it): as the sequence (Q16602 23-461 limits assumed, chain 1 of 2) above, with D55N, L431V counted along it

| Binder | Mutant vs. 4E4.2 Parent B/D Ratio [1] | Normalized Binding Signal/Display Signal (B/D) [1] | Mutant vs. 4E4.2 Parent B/D Ratio [2] | Normalized Binding Signal/Display Signal (B/D) [2] | Human CGRP Receptor/Blank Cells Specific Binding [3] | Mutant vs. 4E4.2 Parent Specific Binding Ratio [3] | Cyno CGRP Receptor/Blank Cells Specific Binding [4] | Mutant vs. 4E4.2 Parent Specific Binding Ratio [4] | Mutant vs. 4E4.2 Parent B/D Ratio [5] | Normalized Binding Signal/Display Signal (B/D) [5] |
| --- | --- | --- | --- | --- | --- | --- | --- | --- | --- | --- |
| B1 | 7.4 fold | 1.13 ratio | 2.2 fold | 0.27 ratio | 17.5 ratio | 2.2 fold | 4.8 ratio | 2.5 fold | 1 fold | 0.1 ratio |
| B2 | 5.8 fold | 0.89 ratio | 1.7 fold | 0.21 ratio | 25.8 ratio | 3.2 fold | 4.6 ratio | 2.4 fold | 0.8 fold | 0.09 ratio |
| B3 | 3.8 fold | 0.58 ratio | 1.4 fold | 0.17 ratio | 14.2 ratio | 1.8 fold | 5.3 ratio | 2.8 fold | 0.9 fold | 0.1 ratio |
| B4 | 3.4 fold | 0.53 ratio | 1.6 fold | 0.2 ratio | 9.5 ratio | 1.2 fold | 3.1 ratio | 1.6 fold | 1.1 fold | 0.12 ratio |
| B5 | 24.6 fold | 3.78 ratio | 6.7 fold | 0.82 ratio | 24.4 ratio | 3.1 fold | 5.2 ratio | 2.7 fold | – | – |
| B6 | 5.3 fold | 0.81 ratio | 1.8 fold | 0.22 ratio | 11.7 ratio | 1.5 fold | 3.1 ratio | 1.6 fold | 1.2 fold | 0.13 ratio |
| B7 | 3.1 fold | 0.48 ratio | 1.4 fold | 0.17 ratio | 18 ratio | 2.3 fold | 4.9 ratio | 2.5 fold | 1 fold | 0.1 ratio |
| B8 | 9.7 fold | 1.5 ratio | 2.8 fold | 0.35 ratio | – | – | 10.3 ratio | 5.4 fold | – | – |
| B9 | – | – | – | – | 8 ratio | 1 fold | 1.9 ratio | 1 fold | – | – |
